Here are results for 1 molecule from PMC10731242, “Macromolecular crowding potently stimulates DNA supercoiling activity of Mycobacterium tuberculosis DNA gyrase”.

Usually Kd stands for the constant that tells how readily two partners part at equilibrium.

Common to all, as to settings: protein: recombinant;recombinant, tags: His-TEV tag, removed by TEV protease;His-TEV tag, chain copies: 2;2, label: 3' Tamra~Q on FL1013, blunt
Data set [1] concerns the target T1, DNA gyrase subunit A (GyrA);DNA gyrase subunit B (GyrB) (Mycobacterium …, UniProt P9WG47;P9WG45 1-838;1-675, |). Briefly: EMSA; 2 mM Mg2+, no crowding agent. In general terms: In EMSA bound probe runs differently from free probe, usually more slowly.
Data set [2] concerns the target T1, DNA gyrase subunit A (GyrA);DNA gyrase …. The data set is described as follows: EMSA; 2 mM Mg2+, 2 M glycine betaine.
The target is the same in data set [3]. Briefly: EMSA; 2 mM Mg2+, 5% PEG400.

T1 sequence (P9WG47 whole entry, chain 1 of 2): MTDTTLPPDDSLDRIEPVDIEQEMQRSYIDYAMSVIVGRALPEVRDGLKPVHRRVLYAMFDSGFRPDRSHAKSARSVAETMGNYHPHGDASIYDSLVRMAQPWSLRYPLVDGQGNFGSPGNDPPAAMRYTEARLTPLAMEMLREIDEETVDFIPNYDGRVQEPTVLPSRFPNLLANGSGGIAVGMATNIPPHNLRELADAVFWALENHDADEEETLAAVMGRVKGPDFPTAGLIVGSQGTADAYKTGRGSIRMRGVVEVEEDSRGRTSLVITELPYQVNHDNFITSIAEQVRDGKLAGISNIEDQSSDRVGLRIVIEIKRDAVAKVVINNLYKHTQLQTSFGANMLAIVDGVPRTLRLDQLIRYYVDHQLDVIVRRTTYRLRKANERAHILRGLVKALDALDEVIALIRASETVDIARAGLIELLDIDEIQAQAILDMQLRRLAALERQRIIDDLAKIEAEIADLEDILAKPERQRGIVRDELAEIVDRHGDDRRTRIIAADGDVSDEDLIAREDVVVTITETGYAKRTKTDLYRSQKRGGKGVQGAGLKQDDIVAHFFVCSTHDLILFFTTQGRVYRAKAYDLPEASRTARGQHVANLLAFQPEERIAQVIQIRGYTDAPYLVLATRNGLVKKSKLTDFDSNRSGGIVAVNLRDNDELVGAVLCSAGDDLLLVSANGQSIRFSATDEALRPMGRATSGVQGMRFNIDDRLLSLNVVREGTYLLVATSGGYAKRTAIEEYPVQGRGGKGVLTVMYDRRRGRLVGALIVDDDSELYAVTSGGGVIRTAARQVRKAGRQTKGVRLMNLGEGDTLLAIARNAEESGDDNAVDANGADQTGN
T1 sequence (P9WG45 whole entry, chain 2 of 2): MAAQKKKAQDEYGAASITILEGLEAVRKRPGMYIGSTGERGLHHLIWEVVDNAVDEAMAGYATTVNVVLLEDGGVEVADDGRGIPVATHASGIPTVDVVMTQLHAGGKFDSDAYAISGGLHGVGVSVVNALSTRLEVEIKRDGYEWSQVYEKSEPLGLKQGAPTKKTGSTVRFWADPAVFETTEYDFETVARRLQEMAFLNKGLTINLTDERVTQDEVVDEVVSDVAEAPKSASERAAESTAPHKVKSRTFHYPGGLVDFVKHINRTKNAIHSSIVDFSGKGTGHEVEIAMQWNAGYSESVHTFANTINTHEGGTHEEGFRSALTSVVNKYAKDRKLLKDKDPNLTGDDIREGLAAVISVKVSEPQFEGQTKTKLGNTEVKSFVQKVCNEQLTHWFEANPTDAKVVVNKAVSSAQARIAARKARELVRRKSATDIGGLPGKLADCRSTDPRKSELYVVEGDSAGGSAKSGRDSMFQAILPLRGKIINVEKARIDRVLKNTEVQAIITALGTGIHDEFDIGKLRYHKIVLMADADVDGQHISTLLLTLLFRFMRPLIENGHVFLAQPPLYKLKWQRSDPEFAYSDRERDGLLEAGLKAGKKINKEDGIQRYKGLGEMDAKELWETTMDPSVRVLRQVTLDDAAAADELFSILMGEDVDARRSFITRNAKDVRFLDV

B1: 50 bp DNA oligomer (FL1013/FL1014) (dsDNA)
DNA 1: TCAGTCCGACATCGGTCATGAATGACTATGCACGTAAACGAGATGCCAAC
DNA 2: GTTGGCATCTCGTTTACGTGCATAGTCATTCATGACCGATGTCGGACTGA
Take B1: the Kd in data set [1] was found to be 94 ± 4 nM; in data set [2], 85 ± 6 nM; in data set [3], 60 ± 24 nM.
